According to publication PMC13311836, “Clinically observed RASA1 missense mutants exhibit diverse RasGAP protein behaviors in vitro” (The Journal of Biological Chemistry, 2026):
[ ]: non-standard residue; d: D form. pY = N[C@@H](Cc1ccc(OP(=O)(O)O)cc1)C(=O)O

How the values were obtained:
[1] = biological target: T1, RasGAP SH2-SH3-SH2 construct (residues 174 to 444), R427Q (human, UniProt P20936 174-444, C236S | C261S | C372S | C402S | R427Q); assay: ITC; replicate, Figure S7 panel G
T1 sequence: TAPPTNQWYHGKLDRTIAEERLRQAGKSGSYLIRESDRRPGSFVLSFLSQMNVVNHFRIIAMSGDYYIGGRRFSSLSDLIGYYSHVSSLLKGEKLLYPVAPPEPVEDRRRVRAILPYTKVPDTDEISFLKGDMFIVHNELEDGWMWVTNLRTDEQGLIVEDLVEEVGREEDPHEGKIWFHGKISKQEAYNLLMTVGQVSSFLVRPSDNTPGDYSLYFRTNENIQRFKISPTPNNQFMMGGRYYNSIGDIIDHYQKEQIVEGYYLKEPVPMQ

[2] = biological target: T2, RasGAP SH2-SH3-SH2 construct (residues 174 to 444), R194C (human, UniProt P20936 174-444, R194C | C236S | C261S | C372S | C402S); assay: ITC; replicate, Figure S7 panel D
T2 sequence: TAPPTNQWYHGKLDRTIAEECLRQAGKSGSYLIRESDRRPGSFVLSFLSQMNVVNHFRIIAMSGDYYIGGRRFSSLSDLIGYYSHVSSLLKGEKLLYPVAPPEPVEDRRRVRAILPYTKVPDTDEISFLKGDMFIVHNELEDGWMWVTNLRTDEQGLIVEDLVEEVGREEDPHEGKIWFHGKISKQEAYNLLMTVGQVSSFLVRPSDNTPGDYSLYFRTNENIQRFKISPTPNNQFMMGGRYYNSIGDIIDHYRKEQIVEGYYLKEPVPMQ

[3] = biological target: T3, RasGAP SH2-SH3-SH2 construct (residues 174 to 444), WT (human, UniProt P20936 174-444, C236S | C261S | C372S | C402S); assay: ITC; replicate, Figure S7 panel A
T3 sequence: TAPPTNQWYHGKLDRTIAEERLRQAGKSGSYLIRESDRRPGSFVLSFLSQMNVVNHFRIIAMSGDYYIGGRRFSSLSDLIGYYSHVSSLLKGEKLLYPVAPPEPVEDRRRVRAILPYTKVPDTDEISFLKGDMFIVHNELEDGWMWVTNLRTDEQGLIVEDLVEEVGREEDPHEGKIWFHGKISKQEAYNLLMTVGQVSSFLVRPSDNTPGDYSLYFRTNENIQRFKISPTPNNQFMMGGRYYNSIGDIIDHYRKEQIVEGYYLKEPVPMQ

[4] = biological target: T3, RasGAP SH2-SH3-SH2 construct (residues …); assay: ITC; replicate, Figure S7 panel B
[5] = biological target: T2, RasGAP SH2-SH3-SH2 construct (residues …); assay: ITC; replicate, Figure S7 panel C
[6] = biological target: T1, RasGAP SH2-SH3-SH2 construct (residues …); assay: ITC; replicate, Figure S7 panel F
[7] = biological target: T3, RasGAP SH2-SH3-SH2 construct (residues …); assay: ITC; average
[8] = biological target: T1, RasGAP SH2-SH3-SH2 construct (residues …); assay: ITC; average
[9] = biological target: T2, RasGAP SH2-SH3-SH2 construct (residues …); assay: ITC; average
[10] = biological target: T2, RasGAP SH2-SH3-SH2 construct (residues …); assay: ITC; replicate, Figure S7 panel E
[11] = biological target: T4, RasGAP SH2-SH3-SH2 construct (residues 174 to 444), R427Q (human, UniProt P20936 174-444, C236S | C261S | C372S | C402S | R427Q); assay: ITC; about 25 μM peptide in the syringe titrated into about 5 μM RasGAP SH2-SH3-SH2 in the cell; 25 °C; 250 mM NaCl, 20 mM Tris pH 8, 1 mM TCEP; Independent model; details: both partners purified
T4 construct: human RasGAP (p120RasGAP, RASA1), UniProt P20936, residues 174-444, with C236S, C261S, C372S, C402S and the cancer-associated C-SH2 mutation R427Q; also called p120RasGAP SH2-SH3-SH2 R427Q; source: E. coli Rosetta (DE3), purified (Ni-NTA, TEV cleavage, anion exchange, SEC); not shown: His6, N-terminal, cleaved
T4 sequence (looked up): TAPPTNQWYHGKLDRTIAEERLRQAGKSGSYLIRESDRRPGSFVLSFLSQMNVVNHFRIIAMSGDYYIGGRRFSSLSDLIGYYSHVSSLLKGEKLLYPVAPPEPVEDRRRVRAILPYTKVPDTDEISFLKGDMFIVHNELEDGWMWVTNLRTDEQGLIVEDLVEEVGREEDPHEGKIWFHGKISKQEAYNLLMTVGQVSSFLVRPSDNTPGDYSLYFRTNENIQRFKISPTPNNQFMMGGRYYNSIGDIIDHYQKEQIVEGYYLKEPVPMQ

[12] = biological target: T5, RasGAP SH2-SH3-SH2 construct (residues 174 to 444), WT (human, UniProt P20936 174-444, C236S | C261S | C372S | C402S); assay: as above; details: both partners purified
T5 construct: also called p120RasGAP SH2-SH3-SH2; RASA1; source: E. coli Rosetta (DE3), purified (Ni-NTA, TEV cleavage, anion exchange, SEC); not shown: His6, N-terminal, cleaved
T5 sequence (looked up): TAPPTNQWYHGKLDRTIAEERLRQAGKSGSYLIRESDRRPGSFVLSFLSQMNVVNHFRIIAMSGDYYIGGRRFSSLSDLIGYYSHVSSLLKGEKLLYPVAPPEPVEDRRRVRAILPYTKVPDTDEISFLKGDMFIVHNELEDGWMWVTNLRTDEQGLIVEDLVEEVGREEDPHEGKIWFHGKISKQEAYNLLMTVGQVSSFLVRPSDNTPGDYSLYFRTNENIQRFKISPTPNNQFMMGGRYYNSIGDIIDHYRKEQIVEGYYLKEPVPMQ

[13] = biological target: T6, RasGAP SH2-SH3-SH2 construct (residues 174 to 444), R194C (human, UniProt P20936 174-444, R194C | C236S | C261S | C372S | C402S); assay: as above; details: both partners purified
T6 construct: human RasGAP (p120RasGAP, RASA1), UniProt P20936, residues 174-444, with C236S, C261S, C372S, C402S and the cancer-associated N-SH2 mutation R194C; also called p120RasGAP SH2-SH3-SH2 R194C; source: E. coli Rosetta (DE3), purified (Ni-NTA, TEV cleavage, anion exchange, SEC); not shown: His6, N-terminal, cleaved
T6 sequence (looked up): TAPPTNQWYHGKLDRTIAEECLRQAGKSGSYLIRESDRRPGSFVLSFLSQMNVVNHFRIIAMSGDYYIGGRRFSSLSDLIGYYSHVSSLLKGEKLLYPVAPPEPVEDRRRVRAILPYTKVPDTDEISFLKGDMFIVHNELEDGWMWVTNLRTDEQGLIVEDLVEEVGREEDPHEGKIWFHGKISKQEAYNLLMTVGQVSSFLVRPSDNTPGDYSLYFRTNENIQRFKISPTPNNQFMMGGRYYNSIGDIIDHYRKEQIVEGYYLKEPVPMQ

Kd [1]: 2.08 nM
Kd [2]: 7.23 nM
Kd [3]: 6.49 nM
Kd [4]: 3.59 nM
Kd [5]: 3.65 nM
Kd [6]: 8.14 nM
Kd [7]: 5.04 nM
Kd [8]: 5.11 nM
Kd [9]: 4.03 nM
Kd [10]: 1.2 nM
binding result [11]: binds
binding result [12]: binds
binding result [13]: binds
B1: p190RhoGAP phosphopeptide, residues 1083 to 1111 (pY1087, pY1105) (peptide)
peptide: Ac-DPSD[pY]AEPMDAVVKPRNEEENI[pY]SVPHDS-NH2
notes: p190RhoGAP (ARHGAP35), UniProt Q9NRY4, residues 1083-1111, 29 amino acids; also called p190RhoGAP peptide; ARHGAP35 peptide; source: synthetic peptide, bought: GenScript
